Experimental data as given in publication PMC10240976 (Autophagy, 2022).

target: LC3A (purified, for ITC); assay: ITC; conditions: both partners purified

| Kd | Binder |
| --- | --- |
| > 132 µM | DGTLIIDLPDSY (also called TP53INP2 peptide; source: synthetic peptide (Cosmo Bio), purified by SEC) [LIR(TP[T]) peptide] |

target: T1, mRFP-GABARAPL1 (UniProt Q9H0R8 1-117); assay: recruitment of LIR-GFP or gProbe; design: unit not given here; conditions: partners not purified
T1 construct: also called membrane-anchored GABARAPL1
T1 sequence (Q9H0R8 whole entry): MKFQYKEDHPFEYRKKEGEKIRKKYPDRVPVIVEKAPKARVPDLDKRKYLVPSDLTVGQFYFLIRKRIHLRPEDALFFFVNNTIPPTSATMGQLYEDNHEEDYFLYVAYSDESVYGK

| other | Binder |
| --- | --- |
| 1.86 | QKVRPQQEDEWVNVQYPDQPEEPPE (domain or fragment, source: HKO HeLa cells, transfected, in cells; not shown: GFP, C-terminal, kept) [LIR(PLEKHM1)-GFP] |
| 5 | FVSEEDEVDGWLIIDLPDSYAAPPS (domain or fragment, also called TP53INP2 (TP); source: HKO HeLa cells, transfected, in cells; not shown: GFP, C-terminal, kept) [LIR(TP)-GFP] |
| 1.41 | PSEDSPLLEDWDIISPKDVIGSDVL (domain or fragment, source: HKO HeLa cells, transfected, in cells; not shown: GFP, C-terminal, kept) [LIR(TBC1D25)-GFP] |
| 3.06 | DQLSLDEKDGFIFVNYSEGQTRAHL (domain or fragment, source: HKO HeLa cells, transfected, in cells; not shown: GFP, C-terminal, kept) [LIR(WDFY3/ALFY)-GFP] |
| 2.43 | PEFNEKEDDEWILVDFIDTCTGFSA (domain or fragment, source: HKO HeLa cells, transfected, in cells; not shown: GFP, C-terminal, kept) [LIR(TP53INP1)-GFP] |
| 1.58 | SKDSSCDTDDFVMVPAQFPGDLVAE (domain or fragment, source: HKO HeLa cells, transfected, in cells; not shown: GFP, C-terminal, kept) [LIR(ULK1)-GFP] |
| 2.5 | SKNSSCDTDDFVLVPHNISSDHSCD (domain or fragment, source: HKO HeLa cells, transfected, in cells; not shown: GFP, C-terminal, kept) [LIR(ULK2)-GFP] |
| 2.93 | KQLKRFSTEEFVLL (domain or fragment, source: HKO HeLa cells, transfected, in cells; not shown: GFP, C-terminal, kept) [LIR(ATG4C)-GFP] |
| 2.81 | QEQSEVDHGDFEMVSESMVLETAEN (domain or fragment, source: HKO HeLa cells, transfected, in cells; not shown: GFP, C-terminal, kept) [LIR(UBR4)-GFP] |
| 5.08 | NSQDRVDHEEWEMVPRHSSWGDVGV (domain or fragment, also called STBD1 (St); source: HKO HeLa cells, transfected, in cells; not shown: GFP, C-terminal, kept) [LIR(St)-GFP] |
| 2.18 | QLEEFDLEEDFEILSV (domain or fragment, source: HKO HeLa cells, transfected, in cells; not shown: GFP, C-terminal, kept) [LIR(ATG4A)-GFP] |
| 2.65 | LRAKRPSSEDFVFL (domain or fragment, source: HKO HeLa cells, transfected, in cells; not shown: GFP, C-terminal, kept) [LIR(ATG4D)-GFP] |
| 1.46 | FALEETLESDWVAVRPHVFDEREKH (domain or fragment, source: HKO HeLa cells, transfected, in cells; not shown: GFP, C-terminal, kept) [LIR(JMY)-GFP] |
| 2.19 | ERFFDSEDEDFEILSL (domain or fragment, also called ATG4B (4B); source: HKO HeLa cells, transfected, in cells; not shown: GFP, C-terminal, kept) [LIR(4B)-GFP] |

target: T1, mRFP-GABARAPL1; assay: recruitment of LIR-GFP or gProbe to mRFP-mATG8-containing autophagic membranes (A:C ratio), microscopy; LIR(X)-GFP or gProbe-X co-expressed with one mRFP-mATG8 in HKO HeLa cells; 100 nM BafA1 in EBSS for 2 h; fixed in 4% PFA; autophagosome:cytosol GFP ratio normalized to GFP-expressing cells; conditions: partners not purified

| normalized A:C ratio | Binder |
| --- | --- |
| 1.96 | PQDYESDDDSYEVLDLTEYARRHQW (domain or fragment, source: HKO HeLa cells, transfected, in cells; not shown: GFP, C-terminal, kept) [LIR(FUNDC1)-GFP] |
| 1.45 | GMQEESLQGSWVELHFSNNGNGGSV (domain or fragment, source: HKO HeLa cells, transfected, in cells; not shown: GFP, C-terminal, kept) [LIR(BNIP3)-GFP] |
